From IntAct's records for PubMed 20664522

B1: CAP-Gly domain-containing linker protein 1 (Rattus norvegicus (Rat)), Q9JK25 (parent)
chain: MSMLKPSGLKAPTKILKPGSTALKTPAAAAAPLEKTVPSEKASGPPSSETQEEFVDDFRVGERVWVNGNKPGFIQFLGETQFAPGQWAGIVLDEPIGKNDGSVAGVRYFQCEPLKGIFTRPSKLTRKVQAEDEANGLQTAHARAASPLSTAAATMVSSSPATPSNIPQKPSQPVAKETSATPQISNLTKTASESISNLSEAGSVKKGERELKIGDRVLVGGTKAGVVRFLGETDFAKGEWCGVELDEPLGKNDGAVAGTRYFQCQPKYGLFAPVHKVTKIGFPSTTPAKAKAAAVRRVMATTPASLKRSPSASSLSSMSSVASSVSSKPSRTGLLTETSSRYARKISGTTALQEALKEKQQHIEQLLAERDLERAEVAKATSHVGEIEQELALARDGHDQHVLELEAKMDQLRTMVEAADREKVELLNQLEEEKRKVEDLQFRVEEESITKGDLETQTKLEHARIKELEQSLLFEKTKADKLQRELEDTRVATVSEKSRIMELEKDLALRVQEVAELRRRLESSKPPGDVDMSLSLLQEISALQEKLEVTHTDHQNEVTSLKDHFGTREEMFQKEIKALHAATEKLSKENESLRSKLDHANKENSDVIALWKSKLETAIASHQQAMEELKVSFSKGIGTDSAEFAELKTQIERLRLDYQHEIESLQSKQDSERSAHAKEMESMKAKLMKIIKEKEDSLEAVKARLDTAEDQHLVEMEEMLSKLQEAEIKKEKFASASEEAVSTQTSMQDTVNKLHQKEEQFNMLSSELEKLRENLTDMEAKFKEKDEREDQLVKAKEKLENDIAEIMKMSGDNSSQLTKMNDELRLKERSVEELQLKLTKANENASLLQKSIGEVTLKAEQSQQEAAKKHEEEKKELENKLLELEKKMETSHYQCQDLKAKYEKASSETKIKHEEILQNFQKMLVDTEDKLKAAQEANRDLMQDMEELKSQADKAKAAQTAEDAMQIMEQMTKEKTETLASLEDTKQTNAKLQSELDTLKENNLKTVEELNKSKELLNEENQKMEEFKKEIETLKQAAAQKSQQLSALQEENVKLAEELGRTRDEVTSHQKLEEERSVLNNQLLEMKKSLPSNTLRESEYRKDADEEKASLQKSISLTSALLTEKDAELEKLRNEVTVLRGENASAKSLHSVVQTLESDKVKLELKVKNLELQLKENKRQLSSSSGNTDVQTEEDERAQESQQMIDFLNSVIVDLQRKNQDLKMKVEMMSEAALNGNGEDPNSYDSDDQEKQSKKKPRLFCDICDCFDLHDTEDCPTQAQMSEDPPHSTHHGSRSEERPYCEICEMFGHWATNCNDDETF
B2: CAP-Gly domain-containing linker protein 1 (Homo sapiens), P30622 (parent)
chain: MSMLKPSGLKAPTKILKPGSTALKTPTAVVAPVEKTISSEKASSTPSSETQEEFVDDFRVGERVWVNGNKPGFIQFLGETQFAPGQWAGIVLDEPIGKNDGSVAGVRYFQCEPLKGIFTRPSKLTRKVQAEDEANGLQTTPASRATSPLCTSTASMVSSSPSTPSNIPQKPSQPAAKEPSATPPISNLTKTASESISNLSEAGSIKKGERELKIGDRVLVGGTKAGVVRFLGETDFAKGEWCGVELDEPLGKNDGAVAGTRYFQCQPKYGLFAPVHKVTKIGFPSTTPAKAKANAVRRVMATTSASLKRSPSASSLSSMSSVASSVSSRPSRTGLLTETSSRYARKISGTTALQEALKEKQQHIEQLLAERDLERAEVAKATSHVGEIEQELALARDGHDQHVLELEAKMDQLRTMVEAADREKVELLNQLEEEKRKVEDLQFRVEEESITKGDLEQKSQISEDPENTQTKLEHARIKELEQSLLFEKTKADKLQRELEDTRVATVSEKSRIMELEKDLALRVQEVAELRRRLESNKPAGDVDMSLSLLQEISSLQEKLEVTRTDHQREITSLKEHFGAREETHQKEIKALYTATEKLSKENESLKSKLEHANKENSDVIALWKSKLETAIASHQQAMEELKVSFSKGLGTETAEFAELKTQIEKMRLDYQHEIENLQNQQDSERAAHAKEMEALRAKLMKVIKEKENSLEAIRSKLDKAEDQHLVEMEDTLNKLQEAEIKVKELEVLQAKCNEQTKVIDNFTSQLKATEEKLLDLDALRKASSEGKSEMKKLRQQLEAAEKQIKHLEIEKNAESSKASSITRELQGRELKLTNLQENLSEVSQVKETLEKELQILKEKFAEASEEAVSVQRSMQETVNKLHQKEEQFNMLSSDLEKLRENLADMEAKFREKDEREEQLIKAKEKLENDIAEIMKMSGDNSSQLTKMNDELRLKERDVEELQLKLTKANENASFLQKSIEDMTVKAEQSQQEAAKKHEEEKKELERKLSDLEKKMETSHNQCQELKARYERATSETKTKHEEILQNLQKTLLDTEDKLKGAREENSGLLQELEELRKQADKAKAAQTAEDAMQIMEQMTKEKTETLASLEDTKQTNAKLQNELDTLKENNLKNVEELNKSKELLTVENQKMEEFRKEIETLKQAAAQKSQQLSALQEENVKLAEELGRSRDEVTSHQKLEEERSVLNNQLLEMKKRESKFIKDADEEKASLQKSISITSALLTEKDAELEKLRNEVTVLRGENASAKSLHSVVQTLESDKVKLELKVKNLELQLKENKRQLSSSSGNTDTQADEDERAQESQIDFLNSVIVDLQRKNQDLKMKVEMMSEAALNGNGDDLNNYDSDDQEKQSKKKPRLFCDICDCFDLHDTEDCPTQAQMSEDPPHSTHHGSRGEERPYCEICEMFGHWATNCNDDETF

Variants of: B1
Settings: with csk2b_human CSNK2B
Target sequence in this assay (P67870 whole entry): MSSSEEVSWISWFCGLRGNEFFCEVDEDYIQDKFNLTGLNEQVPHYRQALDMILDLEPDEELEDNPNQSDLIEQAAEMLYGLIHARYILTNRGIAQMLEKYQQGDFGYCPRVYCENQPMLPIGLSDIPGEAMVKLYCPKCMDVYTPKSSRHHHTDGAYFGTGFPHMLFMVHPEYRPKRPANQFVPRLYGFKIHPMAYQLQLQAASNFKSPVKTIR

Variant | effect of a mutation on the interaction
S194E | increasing interaction

Variants of: B1
Settings: with dctn1_human DCTN1, Q14203
dctn1_human DCTN1, Q14203, sequence (Q14203 whole entry): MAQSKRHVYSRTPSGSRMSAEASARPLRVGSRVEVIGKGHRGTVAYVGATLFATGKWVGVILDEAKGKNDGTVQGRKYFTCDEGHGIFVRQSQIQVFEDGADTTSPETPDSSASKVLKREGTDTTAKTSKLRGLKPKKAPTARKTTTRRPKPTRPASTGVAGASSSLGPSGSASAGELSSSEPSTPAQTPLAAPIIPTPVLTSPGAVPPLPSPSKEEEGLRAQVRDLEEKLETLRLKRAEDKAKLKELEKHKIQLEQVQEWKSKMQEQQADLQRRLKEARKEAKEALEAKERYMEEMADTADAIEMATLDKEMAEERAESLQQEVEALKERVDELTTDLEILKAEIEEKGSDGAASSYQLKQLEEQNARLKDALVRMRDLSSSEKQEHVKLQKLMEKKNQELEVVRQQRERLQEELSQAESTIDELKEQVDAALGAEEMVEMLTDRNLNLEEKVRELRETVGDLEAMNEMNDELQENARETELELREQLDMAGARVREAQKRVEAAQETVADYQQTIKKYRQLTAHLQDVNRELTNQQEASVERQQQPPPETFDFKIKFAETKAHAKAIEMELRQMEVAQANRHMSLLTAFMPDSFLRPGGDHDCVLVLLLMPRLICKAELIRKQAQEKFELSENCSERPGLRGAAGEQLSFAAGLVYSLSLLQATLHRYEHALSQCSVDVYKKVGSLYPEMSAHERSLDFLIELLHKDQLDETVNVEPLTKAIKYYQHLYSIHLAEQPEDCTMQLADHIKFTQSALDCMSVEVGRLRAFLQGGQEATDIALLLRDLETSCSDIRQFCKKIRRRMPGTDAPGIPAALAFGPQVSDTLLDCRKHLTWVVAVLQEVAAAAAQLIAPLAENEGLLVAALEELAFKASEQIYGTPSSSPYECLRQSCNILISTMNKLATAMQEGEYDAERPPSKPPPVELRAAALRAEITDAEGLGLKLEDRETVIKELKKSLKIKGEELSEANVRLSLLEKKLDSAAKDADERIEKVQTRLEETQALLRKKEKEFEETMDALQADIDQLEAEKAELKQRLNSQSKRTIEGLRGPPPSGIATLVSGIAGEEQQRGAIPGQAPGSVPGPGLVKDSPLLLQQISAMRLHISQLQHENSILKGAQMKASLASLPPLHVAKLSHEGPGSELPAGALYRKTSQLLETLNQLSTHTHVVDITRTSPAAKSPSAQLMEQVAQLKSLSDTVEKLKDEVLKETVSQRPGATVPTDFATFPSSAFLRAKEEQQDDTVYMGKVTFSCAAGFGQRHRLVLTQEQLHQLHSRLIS

Variant | effect of a mutation on the interaction
S194A | disrupting interaction

Variants of: B1
Settings: with dctn1_human DCTN1, Q14203
Remark: another data set of the same source

Variant | effect of a mutation on the interaction
S1246A | decreasing interaction

Variants of: B2
Settings: with csk2b_human CSNK2B
Target sequence in this assay (P67870 whole entry): as the sequence (P67870 whole entry) above

Variant | effect of a mutation on the interaction
S195A | decreasing interaction
